US7786356B2, “Method for the production of calendic acid, a fatty acid containing delta 8,10,12 conjugated double bonds and related fatty acids having a modification at the delta 9 position” (E.I. du Pont de Nemours and Company, priority 1999, dated 2010)

Assays:
Assay type in all cases: cell-based
[1] = tested on: somatic soybean embryos; test: Production of dimorphecolic acid in transgenic somatic soybean embryos expressing DMFad2-1 and/or DMFad2-2
From the text: Initially, the open-reading frames of cDNAs for DMFad2-1 and DMFad2-2 were amplified by PCR using Pfu polymerase (Stratagene) to generate the appropriate restriction enzyme sites for cloning into the soybean expression vector. For amplification of the open-reading frame of the DMFad2-1 cDNA, EST dms2c.pk006.d7 (SEQ ID NO: 10 for the nucleotide sequence, and SEQ ID NO:11 for the polypeptide translation product) was used as the template, and the oligonucleotide primers were: 5′-tatgcggccgcAAATGGGAGCAGGAGGTTG-3′ (sense, SEQ ID NO:22) and 5′-tttgcggccgc[…]-3′ (antisense, SEQ ID NO:23). For amplification of the open-reading frame of the DMFad2-2 cDNA, EST dms2c.pk001.113 (SEQ ID NO:12 for the nucleotide sequence, and SEQ ID NO:13 for the polypeptide translation product) was used as the template, and the oligonucleotide primers were: 5′-tgcggccgc[…]-3′ (sense, SEQ ID NO:24) and 5′-tagcggccgcTGATTAATCAAGTCTTAG-3′ (antisense, SEQ ID NO:25). The nucleotides shown in lower case are not Dimorphotheca sequences, but instead encode an added NotI site along with additional bases to facilitate restriction enzyme digestion. The resulting PCR products were subcloned into the intermediate vector pCR-Script AMP SK(+) (Stratagene) according to the manufacturer's protocol. […]
The expression constructs containing the DMFad2-1 and DMFad2-2 coding sequences in vector pKS67 were transformed into somatic soybean embryos using the biolistic method as described in Example 10. […] The fatty acid compositions of the resulting transgenic soybean embryos were then assessed for the presence of novel fatty acid structures. […] The resulting transgenic soybean embryos selected for hygromycin resistance were analyzed for alterations in fatty acid content relative to untransformed embryos. […] The recovered fatty acid methyl esters and derivatives were then analyzed using a Hewlett-Packard 6890 chromatograph fitted with an Omegawax 320 column (30 m×0.32 mm inner diameter; Supelco). […] Fatty acid methyl esters were also analyzed by GC-MS an HP6890 interfaced with a HP5973 (Hewlett-Packard) mass selective detector. […]

[2] = tested on: Saccharomyces cerevisiae INVSc1 cells; test: Expression of CalFad2-1 and CalFad2-2 in Saccharomyces cerevisiae; conditions: cells grown in media containing 2 mM linoleic acid, 4 days at 16° C.; (w/w) of total fatty acids
From the text: The Calendula officinalis clones CalFad2-1 and CalFad2-2 were digested with the restriction enzymes EcoRI and XhoI. The resulting DNA fragments containing the entire cDNA inserts were purified by agarose gel electrophoresis. The purified cDNAs were ligated into the EcoRI and XhoI sites of the Saccharomyces cerevisiae expression vector pYES2 (Invitrogen) using T4 DNA ligase (New England Biolabs). The resulting plasmids pYes2/CalFad2-1 and pYes2/CalFad2-2 were introduced into Saccharomyces cerevisiae INVSc1 (Invitrogen Corp.) cells by lithium acetate-mediated transformation [Sherman F, Fink G R, Hicks J B, Methods in Yeast Genetics: A Laboratory Course Manual, Cold Spring Harbor Lab. Press, Plainview, N.Y. (1987)]. Transformed cells were selected for their ability to grow in the absence of uracil. […] In cells grown in media containing linoleic acid, calendic acid (18:3Δ^8trans,10trans,12cis) was detected in amounts of up to 2.9% (w/w) of the total fatty acids of cultures expressing CalFad2-1 (FIG. 3) and in amounts of up to 0.2% of the total fatty acids of cultures expressing CalFad2-2. […] No calendic acid was detected in cultures harboring the expression vector without a cDNA insert or in cells grown in the absence of exogenous linoleic acid. […]

[3] = tested on: somatic soybean embryos; test: Production of calendic acid in somatic soybean embryos expressing CalFad2-1 or CalFad2-2; conditions: single somatic embryos
From the text: The open-reading frames of these cDNAs were amplified by PCR in order generate the appropriate flanking restriction enzyme sites for cloning into the soybean expression vector. The oligonucleotide primers used for amplification of the CalFad2-1 open-reading frame were: 5′-ttgcggccgc[…]-3′ (sense, SEQ ID NO:18) and 5′-ttgcggccg[…]-3′ (antisense, SEQ ID NO:19). The oligonucleotide primers used for amplification of the CalFad2-2 coding sequence were: 5′-agcggccgcTATACCATGGGCAAG-3′ (sense, SEQ ID NO:20) and 5′-tgcggccgcTATGTTAAACTTC-3′ (antisense, SEQ ID NO:21). [Note: The sequences shown in lower case contain an added NotI site along with additional bases to facilitate restriction enzyme digestion.] The template was the cDNA corresponding to either EST ecs1c.pk009.n14 (CalFad2-1) or EST ecs1c.pk08.a24 (CalFad2-2), and Pfu polymerase (Stratagene) was used for the amplification reactions. The resulting PCR products were subcloned into the intermediate vector pCR-Script AMP SK(+) (Stratagene) according to the manufacturer's protocol. The amplified CalFad2-1 and CalFad2-2 coding sequences were then released with NotI digestion and then subcloned into the corresponding site of the soybean expression vector pKS67.
The PCR amplified coding sequences of CalFad2-1 and CalFa2-2 were fused with the β-conglycinin promoter and phaseolin termination sequences in vector pKS67 was transformed into somatic soybean embryos as follows. To induce somatic embryos, cotyledons, 3-5 mm in length dissected from surface sterilized, immature seeds of a soybean cultivar A2872 or JACK-910 were cultured in the light or dark at 26° C. on an appropriate agar medium for 6-10 weeks. Somatic embryos that produce secondary embryos were then excised and placed into a suitable liquid medium. After repeated selection for clusters of somatic embryos that multiplied as early, globular staged embryos, the suspensions were maintained as described below.
Soybean embryogenic suspension cultures were maintained in 35 mL liquid media on a rotary shaker, 150 rpm, at 26° C. with florescent lights on a 16:8 hour day/night schedule. Cultures were subcultured every two weeks by inoculating approximately 35 mg of tissue into 35 mL of liquid medium.
Soybean embryogenic suspension cultures were then transformed with the vector pKS67 containing the coding sequence for CalFad2-1 and CalFad2-2 by the method of particle gun bombardment (Klein et al. (1987) Nature (London) 327:70, U.S. Pat. No. 4,945,050). A Du Pont Biolisticä PDS1000/HE instrument (helium retrofit) was used for these transformations.
To […] of a 60 mg/mL […] gold particle suspension were added (in order): 5 mL DNA (1 mg/mL), 20 ml spermidine (0.1 M), and […] CaCl2 (2.5 M). The particle preparation was then agitated for three minutes, spun in a microfuge for 10 seconds and the supernatant removed. The DNA-coated particles were then washed once in 400 mL 70% ethanol and resuspended in 40 mL of anhydrous ethanol. The DNA/particle suspension was sonicated three times for one second each. Five mL of the DNA-coated gold particles was then loaded on each macro carrier disk.
Approximately 300-400 mg of a two-week-old suspension culture was placed in an empty 60×15-mm petri dish and the residual liquid removed from the tissue with a pipette. For each transformation experiment, approximately 5 to 10 plates of tissue were bombarded. Membrane rupture pressure was set at 1100 psi and the chamber was evacuated to a vacuum of 28 inches mercury. The tissue was placed approximately 3.5 inches away from the retaining screen and bombarded three times. Following bombardment, the tissue was divided in half and placed back into liquid and cultured as described above.
Five to seven days post bombardment, the liquid media was exchanged with fresh media, and eleven to twelve days post bombardment with fresh media containing […] hygromycin. This selective media was refreshed weekly. […]

[4] = n = 5, ± standard deviation, weight % of total fatty acids

B1: DMFad2-2: Dimorphotheca sinuata Δ-9 hydroxy-conjugase (SEQ ID NO:12/13) converting trans-linoleic acid to dimorphecolic acid (protein, listed as Dimorphotheca sinuata)
chain: MGASEEMKVLERVPVSKPPFEYNDLKKAVPPHCFTRSLSLSFYYLFYDLIKVCILFYVASKYIPMLPYSLSCIVWPLYWFFQGAFLGRLWMIGHECGHHSFSNYRWLDDTVGFLVHTATLTPYFSFKYSHRNHHAHTNSLEYDEVHVPKIRKFKSEHLYSEFLTNNPFGLVVNMVFELTFGYPSYLIFNYSGRKLTQAGFASHLYPQSPIFNDSERNHVFFSDVGICIVLYALYRIAIAKGAMLVLYVYGLPWVVMSAFIFSLTYLQHTHPSIPHYDSTEWNWLRGALSSIDRELAGAFNIKKTHYHVVHHLFPFIPEYHAHDATEALKPILGPYYKYDGTPFYKALWREMKDCLYVESDDGPNKTGVYWFKTKT
[1]; "DMFad2-2 alone" transformants
  dimorphecolic acid accumulation: less than 0.1%
[1]; embryo extracts of FIG. 9 panels B and C
  18:2Δ9cis,12trans in extracts of somatic soybean embryos (FIG. 9): lacked detectable amounts
[1]; experiment MSE 229, GC-MS selected ion 225 m/z
  dimorphecolic acid isomers, share of the total fatty acids: < 0.1%

B2: CalFad2-2: Calendula officinalis fatty acid modifying enzyme (cDNA SEQ ID NO:3, protein SEQ ID NO:4) forming conjugated double bonds at delta-9 position (protein, listed as Calendula officinalis)
chain: MGKAASAKKVLERVPISKPPFEYNDLKKAVPPHCFSRPLSRSLYFLFHDIIVTCILFYVASNYIHMLPRFLSCIVWPVYWISQGVFLGRLWMIGHECGHHSFSNYRWVDDTVGFLIHTATLTPYFSFKYSHRNHHAHTNSMEYDEVHIPKRKSEALYFEFLGNNPIGLMITMLCKLTFGYAAYIMFNYTGKKHKSGGLASHFYPQSPLFNDSERNHVLFSDIGICIVLYACYRIVTVTGAMPAFYVYGIPWVIMSAILFAATYLQHTHPSIPHYDTTEWNWLRGALSTIDRDLGFFNMNKTHYHVIHHLFPVIPEYHAQEATEAIKPILGQYYKYDGTPFLKALWREMKECIYVESDEGQKKQGIYWFKNKT
[2]
  calendic acid (18:3Δ8trans,10trans,12cis), amount of the total fatty acids: up to 0.2%
[3]; n = 5, weight % of total fatty acids
  Other, Fatty Acid Weight %: ≦1.7 Weight %
[3]; [4]
  16:0, Fatty Acid Weight %: 12.3 ± 1.1 Weight %
  18:0, Fatty Acid Weight %: 3.3 ± 0.5 Weight %
  18:1, Fatty Acid Weight %: 8.6 ± 2.1 Weight %
  18:2, Fatty Acid Weight %: 38.2 ± 3.4 Weight %
  18:3, Fatty Acid Weight %: 17.7 ± 3.5 Weight %
  Calendic Acid, Fatty Acid Weight %: 18.1 ± 3.6 Weight %
